Data on eight molecules can be found in patent US20240425589A1, “CYTOTOXICITY-INDUCING THERAPEUTIC AGENT FOR USE IN TREATMENT OF CANCER” (CHUGAI SEIYAKU KABUSHIKI KAISHA, priority 2021, published 2024).

In one assay the target is T1, recombinant human CD137 (Homo sapiens, UniProt Q07011).
T1 construct: made in house; host or cells: FreeStyle293F
Kind of assay: Biacore T200 SPR affinity of Dual-Fab antibodies to human CD137. The conditions noted are these: 37 degrees C, pH 7.4. The class given is binding. From the text:
Human CD137 extracellular domain (ECD) (SEQ ID NO: 179) with hexahistidine (His-tag) and biotin acceptor peptide (BAP) on its C-terminus was expressed transiently using FreeStyle293F cell line (Thermo Fisher). Conditioned media expressing human CD137 ECD was applied to a HisTrap HP column (GE healthcare) and eluted with buffer containing imidazole (Nacalai). Fractions containing human CD137 ECD were collected and subsequently subjected to a Superdex 200 gel filtration column (GE healthcare) equilibrated with 1×D-PBS. Fractions containing human CD137 ECD were then pooled and stored at −80 degrees C.
(§1) Binding affinity of Dual-Fab antibodies (Dual-Ig) to human CD3 were assessed at 25 degrees C. using Biacore T200 instrument (GE Healthcare). Anti-human Fc (GE Healthcare) was immobilized onto all flow cells of a CM4 sensor chip using amine coupling kit (GE Healthcare). Antibodies were captured onto the anti-Fc sensor surfaces, then recombinant human CD3 or CD137 was injected over the flow cell. All antibodies and analytes were prepared in ACES pH 7.4 containing 20 mM ACES, 150 mM NaCl, 0.05% Tween 20, and 0.005% NaN3. Sensor surface was regenerated each cycle with 3M MgCl2. Binding affinity were determined by processing and fitting the data to 1:1 binding model using Biacore T200 Evaluation software, version 2.0 (GE Healthcare). CD137 binding affinity assay was conducted in same condition except assay temperature was set at 37 degrees C.

Assay [1] concerns the target T2, recombinant human CD3 (human CD3eg linker) (Homo sapiens, UniProt P07766+P09693).
T2 construct: made in house; host or cells: FreeStyle293F
Put plainly: Biacore T200 SPR affinity of Dual-Fab antibodies to human CD3. The conditions noted are these: 25 degrees C, pH 7.4. Format: binding.
Text: The gamma and epsilon subunits of the human CD3 complex (human CD3eg linker) were linked by a 29-mer linker and a Flag-tag was fused to the C-terminal end of the gamma subunit (SEQ ID NO: 169). This construct was expressed transiently using FreeStyle293F cell line (Thermo Fisher). Conditioned media expressing human CD3eg linker was concentrated using a column packed with Q HP resins (GE healthcare) and then applied to FLAG-tag affinity chromatography. Fractions containing human CD3eg linker were collected and subsequently subjected to a Superdex 200 gel filtration column (GE healthcare) equilibrated with 1×D-PBS. Fractions containing human CD3eg linker were then pooled and stored at −80 degrees C.
as §1

T2 sequence (P07766+P09693 fused): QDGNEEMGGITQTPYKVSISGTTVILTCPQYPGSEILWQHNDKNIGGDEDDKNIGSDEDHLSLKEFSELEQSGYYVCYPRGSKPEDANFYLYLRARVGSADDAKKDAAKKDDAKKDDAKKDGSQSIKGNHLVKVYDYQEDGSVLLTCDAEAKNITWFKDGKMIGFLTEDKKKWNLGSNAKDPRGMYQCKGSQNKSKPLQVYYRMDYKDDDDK
T1 sequence (Q07011 with tags, fused parts or gaps): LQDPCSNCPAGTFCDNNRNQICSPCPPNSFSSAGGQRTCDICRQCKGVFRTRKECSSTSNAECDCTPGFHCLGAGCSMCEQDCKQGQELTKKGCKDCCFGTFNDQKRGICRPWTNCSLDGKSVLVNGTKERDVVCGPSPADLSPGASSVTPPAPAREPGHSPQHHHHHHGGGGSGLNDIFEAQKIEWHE

B1: H1651L0581: affinity matured Dual-Fab variant, VH SEQ ID NO 98, VL SEQ ID NO 143 (antibody, V domains shown)
VH: QVQLVESGGGLVQPGRSLRLSCAASGFVFSNVWFHWVRQAPGKGLEWVAQIKDKYNAYADYYAPSVEGRFTISRDDSKNSIYLQMNSLKTEDTAVYYCHYVHYASASTLLPAEGVDAWGQGTTVTVSS
VL: DIVMTQSPLSLPVTPGEPASISCQPSQEVVHMNRNTYLHWYQQKPGQAPRLLIYKVSNRFPGVPDRFSGSGSGTDFTLKISRVEAEDVGVYYCAQGTSHPFTFGQGTKLEIK
Regarding B1, in the assay with recombinant human CD137, the “CD137 Koff” value was found to be 0.000603 s⁻¹ and the “CD137 Kon” value was found to be 14000 M⁻¹ s⁻¹. In addition, in assay [1], the “CD3 Koff” value amounted to 0.0371 s⁻¹ and the “CD3 Kon” value is 71800 M⁻¹ s⁻¹.

B2: H183L072: parental Dual-Fab (CD3/CD137), VH SEQ ID NO 90, VL SEQ ID NO 142 (antibody, V domains shown)
VH: QVQLVESGGGLVQPGRSLRLSCAASGFTFSNAWMHWVRQAPGKGLEWVAQIKDKGNAYAAYYAPSVKGRFTISRDDSKNSIYLQMNSLKTEDTAVYYCHYVHYASASTVLPAFGVDAWGQGTTVTVSS
VL: DIVMTQSPLSLPVTPGEPASISCQASQELVHMNRNTYLHWYQQKPGQAPRLLIYKVSNRFPGVPDRFSGSGSGTDFTLKISRVEAEDVGVYYCAQGTSVPFTFGQGTKLEIK
A word on the Kd: it is the free concentration of one partner at which half of the binding sites on the other are occupied at equilibrium, for simple one-to-one binding. Take B2: in the assay with recombinant human CD137, the “CD137 Koff” value is 0.0196 s⁻¹, the “CD137 Kon” value came to 3470 M⁻¹ s⁻¹ and the Kd is 5.66 µM. Moreover, in assay [1], the “CD3 Koff” value was found to be 0.012 s⁻¹ and the “CD3 Kon” value stood at 35400 M⁻¹ s⁻¹.

B3: H1673L0581: affinity matured Dual-Fab variant, VH SEQ ID NO 100, VL SEQ ID NO 143 (antibody, V domains shown)
VH: QVQLVESGGGLVQPGRSLRLSCAASGFVFSNVWFHWVRQAPGKGLEWVAQIKDKWNAYADYYAPSVKERFTISRDDSKNSIYLQMNSLKTEDTAVYYCHYIHYASASTLLPAEGIDAWGQGTTVTVSS
VL: DIVMTQSPLSLPVTPGEPASISCQPSQEVVHMNRNTYLHWYQQKPGQAPRLLIYKVSNRFPGVPDRFSGSGSGTDFTLKISRVEAEDVGVYYCAQGTSHPFTFGQGTKLEIK
In the case of B3, in the assay with recombinant human CD137, the “CD137 Koff” value is 0.00096 s⁻¹ and the “CD137 Kon” value came out at 11900 M⁻¹ s⁻¹. Besides, in assay [1], the “CD3 Koff” value came to 0.00106 s⁻¹ and the “CD3 Kon” value was found to be 79600 M⁻¹ s⁻¹.

B4: H1673L0943: affinity matured Dual-Fab variant, VH SEQ ID NO 100, VL SEQ ID NO 146 (antibody, V domains shown)
VH: QVQLVESGGGLVQPGRSLRLSCAASGFVFSNVWFHWVRQAPGKGLEWVAQIKDKWNAYADYYAPSVKERFTISRDDSKNSIYLQMNSLKTEDTAVYYCHYIHYASASTLLPAEGIDAWGQGTTVTVSS
VL: DIVMTQSPLSLPVTPGEPASISCQPSEEVVHMNRNTYLHWYQQKPGQAPRLLIYKVSNLFPGVPDRFSGSGSGTDFTLKISRVEAEDVGVYYCAQGTHHPFTFGQGTKLEIK
Regarding B4, in the assay with recombinant human CD137, the “CD137 Koff” value amounted to 0.000722 s⁻¹ and the “CD137 Kon” value turned out to be 12200 M⁻¹ s⁻¹. Besides, in assay [1], the “CD3 Koff” value was 0.00116 s⁻¹ and the “CD3 Kon” value turned out to be 55000 M⁻¹ s⁻¹.

B5: H2591L0581: affinity matured Dual-Fab variant, VH SEQ ID NO 101, VL SEQ ID NO 143 (antibody, V domains shown)
VH: QVQLVESGGGLVQPGRSLRLSCAASGFKFSNVWFHWVRQAPGKGLEWVAQIKDYYNAYAGYYHPSVKGRFTISRDDSKNSIYLQMNSLKTEDTAVYYCHYVHYAAASTLLPAEGVDAWGQGTTVTVSS
VL: DIVMTQSPLSLPVTPGEPASISCQPSQEVVHMNRNTYLHWYQQKPGQAPRLLIYKVSNRFPGVPDRFSGSGSGTDFTLKISRVEAEDVGVYYCAQGTSHPFTFGQGTKLEIK
On to B5, for which, in the assay with recombinant human CD137, the “CD137 Koff” value was determined as 0.000742 s⁻¹ and the “CD137 Kon” value was found to be 20400 M⁻¹ s⁻¹. For the same molecule, in assay [1], the “CD3 Koff” value came to 0.0535 s⁻¹ and the “CD3 Kon” value came out at 102000 M⁻¹ s⁻¹.

B6: H1652L0943: affinity matured Dual-Fab variant, VH SEQ ID NO 99, VL SEQ ID NO 146 (antibody, V domains shown)
VH: QVQLVESGGGLVQPGRSLRLSCAASGFVFSNVWFHWVRQAPGKGLEWVAQIKDYYNAYADYYAPSVEGRFTISRDDSKNSIYLQMNSLKTEDTAVYYCHYVHYASASTLLPAEGVDAWGQGTTVTVSS
VL: DIVMTQSPLSLPVTPGEPASISCQPSEEVVHMNRNTYLHWYQQKPGQAPRLLIYKVSNLFPGVPDRFSGSGSGTDFTLKISRVEAEDVGVYYCAQGTHHPFTFGQGTKLEIK
As for B6, in the assay with recombinant human CD137, the “CD137 Koff” value was 0.00047 s⁻¹ and the “CD137 Kon” value was found to be 12900 M⁻¹ s⁻¹. In addition, in assay [1], the “CD3 Koff” value was 0.0636 s⁻¹, the “CD3 Kon” value was 62300 M⁻¹ s⁻¹ and the Kd amounted to 1.02 µM.

B7: H2594L0581: affinity matured Dual-Fab variant, VH SEQ ID NO 102, VL SEQ ID NO 143 (antibody, V domains shown)
VH: QVQLVESGGGLVQPGRSLRLSCAASGFKFSNVWFHWVRQAPGKGLEWVAQIKDYYNAYAGYYHPSVKGRFTISRDDSKNSIYLQMNSLKTEDTAVYYCHYVHYAAASQLLPAEGVDAWGQGTTVTVSS
VL: DIVMTQSPLSLPVTPGEPASISCQPSQEVVHMNRNTYLHWYQQKPGQAPRLLIYKVSNRFPGVPDRFSGSGSGTDFTLKISRVEAEDVGVYYCAQGTSHPFTFGQGTKLEIK
With B7, in the assay with recombinant human CD137, the “CD137 Koff” value came to 0.00163 s⁻¹ and the “CD137 Kon” value worked out at 20900 M⁻¹ s⁻¹. Besides, in assay [1], the “CD3 Koff” value is 0.0584 s⁻¹ and the “CD3 Kon” value was 98300 M⁻¹ s⁻¹.

B8: H1550L0918: affinity matured Dual-Fab variant, VH SEQ ID NO 92, VL SEQ ID NO 144 (antibody, V domains shown)
VH: QVQLVESGGGLVQPGRSLRLSCAASGFKFSNVWMHWVRQAPGKGLEWVAQIKDKYNAYAAYYAPSVKGRFTISRDDSKNSIYLQMNSLKTEDTAVYYCHYIHYASASTLLPAFGVDAWGQGTTVTVSS
VL: DIVMTQSPLSLPVTPGEPASISCQPSQEVVHMNNVVYLHWYQQKPGQAPRLLIYKVSNRFPGVPDRFSGSGSGTDFTLKISRVEAEDVGVYYCAQGTSHPFTFGQGTKLEIK
On to B8, for which, in the assay with recombinant human CD137, the “CD137 Koff” value came to 0.00579 s⁻¹ and the “CD137 Kon” value came out at 10900 M⁻¹ s⁻¹. For the same molecule, in assay [1], the “CD3 Koff” value came to 0.00316 s⁻¹ and the “CD3 Kon” value stood at 72000 M⁻¹ s⁻¹.
